These results are taken from US20240209076A1.

For experiment [1], the target named is VEGF-A165 (UniProt P15692). Description: Biacore T200 SPR at 37 C, binder captured on Protein A chip, VEGF-A165 0.19 to 15 nM in five steps, 60 min dissociation, 1:1 Langmuir fit.
Experiment [2] concerns the target VEGF (UniProt P15692). The experiment is described as follows: cell-based or functional assay.
The target of experiment [3] is VEGF-A165 (UniProt P15692). Description: Biacore SPR at 37 C, binder captured on Protein A chip, VEGF-A165 0.19 to 15 nM in five steps, 1:1 Langmuir fit. (Surface plasmon resonance follows binding to a sensor surface in real time, without labels.)
Experiment [4] deals with VEGF-A165 (UniProt P15692). Description: SPR (Biacore T200), 37 C, binder captured on a Protein A chip, VEGF-A165 0.19 to 15 nM flowed over, 1:1 Langmuir fit.

Sequence of Eylea (Fc fusion) (chain): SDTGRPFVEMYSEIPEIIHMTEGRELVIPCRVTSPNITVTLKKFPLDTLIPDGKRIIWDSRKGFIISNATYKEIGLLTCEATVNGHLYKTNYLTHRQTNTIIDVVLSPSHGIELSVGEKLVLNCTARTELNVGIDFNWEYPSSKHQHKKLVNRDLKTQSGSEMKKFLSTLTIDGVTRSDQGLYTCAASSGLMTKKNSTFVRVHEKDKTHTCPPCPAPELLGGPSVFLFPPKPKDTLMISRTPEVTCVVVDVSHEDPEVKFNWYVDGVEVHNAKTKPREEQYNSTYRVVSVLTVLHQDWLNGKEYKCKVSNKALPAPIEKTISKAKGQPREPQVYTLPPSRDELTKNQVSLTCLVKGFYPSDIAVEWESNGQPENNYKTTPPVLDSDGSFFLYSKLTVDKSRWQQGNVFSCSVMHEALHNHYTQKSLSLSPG
Sequence of VEGF-A165 (P15692 other isoform, or with tags, fused parts or gaps limits assumed): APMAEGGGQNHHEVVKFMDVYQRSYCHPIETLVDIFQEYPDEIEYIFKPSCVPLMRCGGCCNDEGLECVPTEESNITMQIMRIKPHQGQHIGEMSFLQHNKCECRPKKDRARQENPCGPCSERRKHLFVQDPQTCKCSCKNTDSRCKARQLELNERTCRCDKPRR
Sequence of VEGF (P15692 other isoform, or with tags, fused parts or gaps limits assumed): as above

For Eylea (Fc fusion), the Kd in experiment [1] was 0.00535 nM; in experiment [3], 0.0157 nM; in experiment [4], 0.00622 nM. The cell based VEGF stimulated VEGFR reporter assay, average IC50 in experiment [2] stood at 0.35 nM.

Broadly, the Kd is the free concentration of one partner at which half of the binding sites on the other are occupied at equilibrium, for simple one-to-one binding.
